Results on eight sequences are retold here after the DeepSol protein solubility set.

A short description of the series: soluble on expression in E. coli; label from the status in PepcDB or PDB records.
Turning to “ASIFGVFDIKTDAVELRKKALELSRLMRHRGPDWSGIYASDNAILAHERLSIVDVNAGAQPLYNQQKTHVLAVNGEIYNHQALRAEYGDRYQFQTGSDCEVILALYQEKGPEFLDDLQGMFAFALYDSEKDAYLIGRDHLGIIPLYMGYDEHGQLYVASEMKALVPVCRTIKEFPAGSYLWSQDGEIRSYYHRDWFDYDAVKDNVTDKNELRQALEDSVKSHLMSDVPYGVLLSGGLDSSIISAITKKYAARRVEDQERSEAWWPQLHSFAVGLPGSPDLKAAQEVANHLGTVHHEIHFTVQEGLDAIRDVIYHIETYDVTTIRASTPMYLMSRKIKAMGIKMVLSGEGSDEVFGGYLYFHKAPNAKELHEETVRKLLALHMYDCARANKAMSAWGVEARVPFLDKKFLDVAMRINPQDKMCGNGKMEKHILRECFEAYLPASVAWRQKEQFSDGVGYSWIDTLKEVAAQQVSDQQLETARFRFPYNTPTSKEAYLYREIFEELFPLPSAAECVPGGPSVACSSAKAIEWDEAFKKMDDPSGRAVGVHQSAYK”, the “soluble on expression in E. coli” value is “soluble”.

As to “GSHMSQGSGEGEGVQLTAAQELMIQQLVAAQLQCNKRSFSDQPKVTPWPLGADPQSRDARQQRFAHFTELAIISVQEIVDFAKQVPGFLQLGREDQIALLKASTIEIMLLETARRYNHETECITFLKDFTYSKDDFHRAGLQVEFINPIFEFSRAMRRLGLDDAEYALLIAINIFSADRPNVQEPGRVEALQQPYVEALLSYTRIKRPQDQLRFPRMLMKLVSLRTLSSVHSEQVFALRLQDKKLPPLLSEIWDVHE”, the “soluble on expression in E. coli” value is given as “soluble”.

“MSLKTHTLPLLLSCTLFLIGACTSMPPEIRNFSAVDIPYQPVSQNAETYKDAPVRWGGTVIEVENETDFSLMQVLFHPLDRSGYPETRKPGEGRFAVEINEFLDPAIYTKGVEVTVIGTVKGNIERTIGNKTIHIPLITAKTIHLWPQAYREDNLYRYGPYPGYYGYGYPFFYNGYYRPYRFWWEGHHHHHH”: the “soluble on expression in E. coli” value is listed as “not soluble”.

Consider “MSLLFDQGHAYQPLAEVLRPQTLTDYIGQQHILGPGKPLRQTLENRNLHSMIFWGPPGVGKTTLANVISNTVEARFEVLSAVQAGVKDIKLVAEKAKQAQAYGEVTVLFVDEVHRFNKAQQDAFLPYVENGTFIFIGATTENPSFELNSALLSRARVYVLKSFTDDDFRQLWQRARSLDERIAKLAIENDALDGLIQFADGDARRFLNFLEIAIDFFTSEAVITLDDIRELLSHQPRRFDKGGENFYDQISAFHKSVRGSSPDGALYWLCRMLDGGIDPLYLARRMVRIASEDIGNADPRALTLALNAWDSQERLGSPEGELSLAQAAVYLASAPKSNAVYTAFNAMMSAVRSSHSAEVPLHLRNAPTSLMKDLDYGRDYRYAHDEPHAYAAGEVYLPDHMQGQRFYDPVDRGLEQKIRQKLDFLKQLDEQAQNQEDEGHHHHHH”, for which the “soluble on expression in E. coli” value is listed as “soluble”.

With “MVHNFRNDITVDWCPGCGDFGILTALTSALSELNLGSHDVAIISGIGCSGKTPHYVNAAGAHTLHGRAIPVAVGVKLTNPHLKVIVTGGDGDLMSIGAGHLVAEGRRNSGITVLMYDNAVYGLTKGQAAPTLKLGVQTKSLARPNIYDAINPIMLAISSGYSFVARGFSFEIAHLKNIIKQAIMFPGSSFIDILQPCPTYNNINTMDWYKKRVYKLDDDKSWDPVITENDPKAEEKYNKAIEKSFEWGDKIPIGVFYVNKKVPPFTERLKQYVDNYEQIPPAVQDVSTEDGKPILDPFETFKDKI”, the “soluble on expression in E. coli” value is recorded as “not soluble”.

Regarding “MFERVREDIQSVFHRDPAARNALEVLTCYPGLHAVWLHRLAHGLWTSGWKWLARLVSNFGRWMTGIEIHPGARIGRRFFIDHGMGIVIGETAEIGDDVTLYQGVTLGGTTWNKGKRHPTLGNNVVVGAGAKVLGPFTVGEGAKVGSNAVVTKEVPPGATVVGIPGRIIMREDSEQQAKRQAMAEKLGFDAYGVSQDMPDPVARAIGQLLDHLQAVDGRLEGMCQALTALGSDYCAKDLPVLREEDFAGVKDEDGNPAA”, the “soluble on expression in E. coli” value was “not soluble”.

For “PVSAMAKKQKNDVADWLMHKQRVQYGGRVYERSGGIKPFLKSIRDGYIGYYLPDQDHGPEHSVFVDFFATRKATLPGLGKIAKLSRSKVLPLFASMNTEDGTFDIEILPAFDLDKGEEQDARTCNEAIEYFVGDKPEQYMWVLQLLHSQEDGNNYYNLFKPRYNTDWQVEK”, the “soluble on expression in E. coli” value is listed as “not soluble”.

For the sequence “MRPTVVSMGKHFGNLGKMYGEHRFALAPNEQKAYKGFFDQAFVKTFKTYVWDQWYYYIPQTIGAYLLYDWAKKTNVAANRKNPADFANDQ”, the “soluble on expression in E. coli” value was “not soluble”.
